* marks the point of attachment. CONH‑phenylbutyl = C-terminal alpha-ketoamide warhead with phenylbutyl on the amide nitrogen, O=C(NCCCCc1ccccc1)*; B(OH)2 = C-terminal boronate warhead, OB(O)*
Key:
[1] = biological target: P. falciparum rhomboid protease PfROM4 (HA-tagged) (P. falciparum); experiment: cell-based or functional assay
[2] = biological target: T1, E. coli GlpG consisting of residues 87-276 (ΔN-GlpG) (E. coli, UniProt P09391 87-276); experiment: crystal structure
T1 sequence (looked up): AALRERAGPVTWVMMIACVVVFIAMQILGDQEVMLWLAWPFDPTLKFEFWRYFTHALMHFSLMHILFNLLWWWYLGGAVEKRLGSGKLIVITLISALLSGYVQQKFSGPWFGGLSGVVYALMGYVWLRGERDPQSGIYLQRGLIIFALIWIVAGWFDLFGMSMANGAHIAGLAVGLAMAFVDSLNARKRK

Binder | EC50 of inhibition of EBA175 cleavage by PfROM4 in HEK293T cells [1] [nM] | binding result [2]
Ac-RVWHA-{CONH‑phenylbutyl} [rhomboid-inhibiting ketoamide (RiKa), Ac-RVWHA-CONH-phenylbutyl] | 55 | binds
Ac-KRFRSMQYSA-{B(OH)2} (SMILES CSCC[C@H](NC(=O)[C@H](CO)NC(=O)[C@H](CCCNC(=N)N)NC(=O)[C@H](Cc1ccccc1)NC(=O)[C@H](CCCNC(=N)N)NC(=O)[C@H](CCCCN)NC(C)=O)C(=O)N[C@@H](CCC(N)=O)C(=O)N[C@@H](Cc1ccc(O)cc1)C(=O)N[C@@H](CO)C(=O)N[C@@H](C)C(=O)B(O)O) [rhomboid-inhibiting boronate (RiBn), Ac-KRFRSMQYSA-B(OH)2] |  | binds

Source: PMC7680425 (Cell chemical biology, 2020)
